Here are results for two molecules from patent US20070003556A1 (published 2007).

The target of assay [1] is T1, CD22 (UniProt P20273 20-847, limits assumed).
T1 construct: whole, on cells; The assays used B-lymphoma cell lines Raji and Daudi, 'which are known to strongly express CD22'; also called CD22 on Raji cells; CD22 on Daudi cells
T1 sequence (looked up): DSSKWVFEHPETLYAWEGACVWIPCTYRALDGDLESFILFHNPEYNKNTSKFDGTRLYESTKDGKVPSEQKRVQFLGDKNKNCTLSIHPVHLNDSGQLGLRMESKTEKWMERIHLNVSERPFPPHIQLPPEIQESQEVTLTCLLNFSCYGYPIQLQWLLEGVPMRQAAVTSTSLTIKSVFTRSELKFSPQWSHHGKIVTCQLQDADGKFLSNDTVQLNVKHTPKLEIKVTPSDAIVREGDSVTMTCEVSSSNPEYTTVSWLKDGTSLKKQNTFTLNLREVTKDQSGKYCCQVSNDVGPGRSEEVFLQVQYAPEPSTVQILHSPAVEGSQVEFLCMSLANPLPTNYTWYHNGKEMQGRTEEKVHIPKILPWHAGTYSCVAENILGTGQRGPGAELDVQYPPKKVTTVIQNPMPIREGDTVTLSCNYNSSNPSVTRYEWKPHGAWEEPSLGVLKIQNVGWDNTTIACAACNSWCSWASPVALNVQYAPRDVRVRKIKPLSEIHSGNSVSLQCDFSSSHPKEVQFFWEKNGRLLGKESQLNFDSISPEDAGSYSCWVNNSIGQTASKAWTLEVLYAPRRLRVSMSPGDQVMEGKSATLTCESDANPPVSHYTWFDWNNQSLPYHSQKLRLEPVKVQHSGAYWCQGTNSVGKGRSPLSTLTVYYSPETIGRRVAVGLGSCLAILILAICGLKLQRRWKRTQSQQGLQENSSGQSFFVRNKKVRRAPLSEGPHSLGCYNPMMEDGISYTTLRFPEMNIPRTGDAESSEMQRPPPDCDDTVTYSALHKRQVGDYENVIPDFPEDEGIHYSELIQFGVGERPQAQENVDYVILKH
In words: flow cytometry on Raji cells, diabody at 20 ug/mL, detected with anti-Flag M2 antibody and FITC-anti-mouse IgG. As to the method: (§1) Purified LL2 diabody and RFB4 diabody were added to cells of the B-lymphoma cell line, Raji, in PBS containing 2% FCS and 0.02% NaN₃ such that the final concentrations were 20 μg/mL and 8 μg/mL, respectively. After reacting on ice for one hour, anti-Flag M2 antibody was added to the mixture, and then reacted on ice for another one hour. The cells were washed and reacted with FITC-anti-mouse IgG on ice for 30 minutes. Diabody binding to the cell surface was measured by flow cytometry (EPICS ELITE, COULTER).

The target in assay [2] is T1, CD22. In words: flow cytometry on Raji cells, diabody at 8 ug/mL, detected with anti-Flag M2 antibody and FITC-anti-mouse IgG. As to the method: as §1

B1: LL2 diabody (other)
chain: QVQLQESGAELSKPGASVKMSCKASGYTFTSYWLHWIKQRPGQGLEWIGYINPRNDYTEYNQNFKDKATLTADKSSSTAYMQLSSLTSEDSAVYYCARRDITTFYWGQGTTLTVSSGGGGSDIQLTQSPSSLAVSAGENVTMSCKSSQSVLYSANHKNYLAWYQQKPGQSPKLLIYWASTRESGVPDRFTGSGSGTDFTLTISRVQVEDLAIYYCHQYLSSWTFGGGTKLEIKDYKDDDDK
notes: Diabody: a non-covalent dimer of two identical VH-(5-mer linker)-VL-Flag fragments; Expressed in DG44 cells and purified on anti-Flag M2 agarose; also called CD22 diabody; LL2 DB
With B1, in the assay with CD22 [1], the binding result was “binds”.

B2: RFB4 diabody (other)
chain: EVQLVESGGGLVKPGGSLKLSCAASGFAFSIYDMSWVRQTPEKRLEWVAYISSGGGTTYYPDTVKGRFTISRDNAKNTLYLQMSSLKSEDTAMYYCARHSGYGSSYGVLFAYWGQGTLVTVSAGGGGSDIQMTQTTSSLSASLGDRVTISCRASQDISNYLNWYQQKPDGTVKLLIYYTSILHSGVPSKFSGSGSGTDYSLTISNLEQEDFATYFCQQGNTLPWTFGGGTKLEIKDYKDDDDK
notes: Diabody: a non-covalent dimer of two identical VH-(5-mer linker)-VL-Flag fragments; Transiently expressed in COS7 cells and purified on anti-Flag M2 agarose; also called CD22 diabody; RFB4 DB
With B2, in the assay with CD22 [2], the binding result is listed as “binds”.
